B1: HHH_rd2_0155 (parent)
chain: PPDDERKKAEKAARSGNEEKAREILERLGYSEDEARELAKRLR

Variants of: B1
Assay: folding stability dG (cDNA display proteolysis); higher = more stable
Settings: PBS, room temperature

| Variant | folding stability dG |
| --- | --- |
| PPDDERKKAEKAARSGNEEKAREILERLGYSEDEARELAKGLR | 0.69 kcal/mol |
| PPDDERKKAEKAARSGNEEKAREILERLGYSEDEARELAKILR | 1.6 kcal/mol |
| PPDDERKKAEKAARSGNEEKAREILERLGYSEDEARELAKNLR | 1.39 kcal/mol |
| PPDDERKKAEKAARSGNEEKAREILERLGYSEDEARELAKDLR | 0.97 kcal/mol |
| PPDDERKKAEKAARSGNEEKAREILERLGYSEDEARELAKELR | 1.05 kcal/mol |
| PPDDERKKAEKAARSGNEEKAREILERLGYSEDEARELAKFLR | 1.91 kcal/mol |
| PPDDERKKAEKAARSGNEEKAREILERLGYSEDEARELAKHLR | 1.66 kcal/mol |
| PPDDERKKAEKAARSGNEEKAREILERLGYSEDEARELAKVLR | 1.35 kcal/mol |
| PPDDERKKAEKAARSGNEEKAREILERLGYSEDEARELAKKLR | 1.98 kcal/mol |
| PPDDERKKAEKAARSGNEEKAREILERLGYSEDEARELAKQLR | 1.78 kcal/mol |
| PPDDERKKAEKAARSGNEEKAREILERLGYSEDEARELAKLLR | 2.04 kcal/mol |
| PPDDERKKAEKAARSGNEEKAREILERLGYSEDEARELAKMLR | 1.86 kcal/mol |
| PPDDERKKAEKAARSGNEEKAREILERLGYSEDEARELAKTLR | 1.37 kcal/mol |
| PPDDERKKAEKAARSGNEEKAREILERLGYSEDEARELAKCLR | 1.92 kcal/mol |
| PPDDERKKAEKAARSGNEEKAREILERLGYSEDEARELAKWLR | 1.85 kcal/mol |
| PPDDERKKAEKAARSGNEEKAREILERLGYSEDEARELAKSLR | 1.43 kcal/mol |
| PPDDERKKAEKAARSGNEEKAREILERLGYSEDEARELAKALR | 1.56 kcal/mol |
| PPDDERKKAEKAARSGNEEKAREILERLGYSEDEARELAKYLR | 1.73 kcal/mol |
| PPDDERKKAEKAARSGNEEKAREILERLGYSEDEARELSKRLR | 1.02 kcal/mol |
| PPDDERKKAEKAARSGNEEKAREILERLGYSEDEARELNKRLR | 0.26 kcal/mol |
| PPDDERKKAEKAARSGNEEKAREILERLGYSEDEARELCKRLR | 2.23 kcal/mol |
| PPDDERKKAEKAARSGNEEKAREILERLGYSEDEARELQKRLR | 0.366 kcal/mol |
| PPDDERKKAEKAARSGNEEKAREILERLGYSEDEARELIKRLR | 2.75 kcal/mol |
| PPDDERKKAEKAARSGNEEKAREILERLGYSEDEARELGKRLR | 0.397 kcal/mol |

| Variant | folding stability dG |
| --- | --- |
| PPDDERKKAEKAARSGNEEKAREILERLGYSEDEARELRKRLR | 0.796 kcal/mol |
| PPDDERKKAEKAARSGNEEKAREILERLGYSEDEARELVKRLR | 2.33 kcal/mol |
| PPDDERKKAEKAARSGNEEKAREILERLGYSEDEARELTKRLR | 1.21 kcal/mol |
| PPDDERKKAEKAARSGNEEKAREILERLGYSEDEARELKKRLR | 0.184 kcal/mol |
| PPDDERKKAEKAARSGNEEKAREILERLGYSEDEARELEKRLR | 0.651 kcal/mol |
| PPDDERKKAEKAARSGNEEKAREILERLGYSEDEARELHKRLR | 0.706 kcal/mol |
| PPDDERKKAEKAARSGNEEKAREILERLGYSEDEARELLKRLR | 2.36 kcal/mol |
| PPDDERKKAEKAARSGNEEKAREILERLGYSEDEARELPKRLR | -0.361 kcal/mol |
| PPDDERKKAEKAARSGNEEKAREILERLGYSEDEARELWKRLR | 1.01 kcal/mol |
| PPDDERKKAEKAARSGNEEKAREILERLGYSEDEARELYKRLR | 1.66 kcal/mol |
| PPDDERKKAEKAARSGNEEKAREILERLGYSEDEARELFKRLR | 1.52 kcal/mol |
| PPDDERKKAEKAARSGNEEKAREILERLGYSEDEARELMKRLR | 1.75 kcal/mol |
| PPDDERKKAEKAARSGNEEKAREILERLGYSEDEARELDKRLR | -0.2 kcal/mol |
| PPDDERKKAEKAARSGNEEKAREILERLGYSEDEARELAERLR | 1.76 kcal/mol |
| PPDDERKKAEKAARSGNEEKAREILERLGYSEDEARELARRLR | 2.52 kcal/mol |
| PPDDERKKAEKAARSGNEEKAREILERLGYSEDEARELAYRLR | 1.98 kcal/mol |
| PPDDERKKAEKAARSGNEEKAREILERLGYSEDEARELAVRLR | 1.43 kcal/mol |
| PPDDERKKAEKAARSGNEEKAREILERLGYSEDEARELATRLR | 1.63 kcal/mol |
| PPDDERKKAEKAARSGNEEKAREILERLGYSEDEARELAARLR | 2.06 kcal/mol |
| PPDDERKKAEKAARSGNEEKAREILERLGYSEDEARELAFRLR | 1.8 kcal/mol |
| PPDDERKKAEKAARSGNEEKAREILERLGYSEDEARELAWRLR | 2.08 kcal/mol |
| PPDDERKKAEKAARSGNEEKAREILERLGYSEDEARELAGRLR | 1.44 kcal/mol |
| PPDDERKKAEKAARSGNEEKAREILERLGYSEDEARELAQRLR | 1.84 kcal/mol |
| PPDDERKKAEKAARSGNEEKAREILERLGYSEDEARELASRLR | 1.97 kcal/mol |

| Variant | folding stability dG |
| --- | --- |
| PPDDERKKAEKAARSGNEEKAREILERLGYSEDEARELALRLR | 1.81 kcal/mol |
| PPDDERKKAEKAARSGNEEKAREILERLGYSEDEARELAMRLR | 2.22 kcal/mol |
| PPDDERKKAEKAARSGNEEKAREILERLGYSEDEARELAHRLR | 2.39 kcal/mol |
| PPDDERKKAEKAARSGNEEKAREILERLGYSEDEARELADRLR | 1.31 kcal/mol |
| PPDDERKKAEKAARSGNEEKAREILERLGYSEDEARELAPRLR | 0.1 kcal/mol |
| PPDDERKKAEKAARSGNEEKAREILERLGYSEDEARELANRLR | 1.79 kcal/mol |
| PPDDERKKAEKAARSGNEEKAREILERLGYSEDEARELAIRLR | 1.61 kcal/mol |
| PPDDERKKAEKAARSGNEEKAREILERLGYSEDEARELAKRLN | 1.44 kcal/mol |
| PPDDERKKAEKAARSGNEEKAREILERLGYSEDEARELAKRLK | 1.79 kcal/mol |
| PPDDERKKAEKAARSGNEEKAREILERLGYSEDEARELAKRLM | 2.09 kcal/mol |
| PPDDERKKAEKAARSGNEEKAREILERLGYSEDEARELAKRLI | 1.55 kcal/mol |
| PPDDERKKAEKAARSGNEEKAREILERLGYSEDEARELAKRLP | 0.532 kcal/mol |
| PPDDERKKAEKAARSGNEEKAREILERLGYSEDEARELAKRLE | 0.924 kcal/mol |
| PPDDERKKAEKAARSGNEEKAREILERLGYSEDEARELAKRLD | 0.613 kcal/mol |
| PPDDERKKAEKAARSGNEEKAREILERLGYSEDEARELAKRLG | 1.48 kcal/mol |
| PPDDERKKAEKAARSGNEEKAREILERLGYSEDEARELAKRLH | 1.91 kcal/mol |
| PPDDERKKAEKAARSGNEEKAREILERLGYSEDEARELAKRLL | 1.87 kcal/mol |
| PPDDERKKAEKAARSGNEEKAREILERLGYSEDEARELAKRLA | 2.29 kcal/mol |
| PPDDERKKAEKAARSGNEEKAREILERLGYSEDEARELAKRLF | 2.48 kcal/mol |
| PPDDERKKAEKAARSGNEEKAREILERLGYSEDEARPLAKRLR | -0.452 kcal/mol |
| PPDDERKKAEKAARSGNEEKAREILERLGYSEDEARSLAKRLR | 2.05 kcal/mol |
| PPDDERKKAEKAARSGNEEKAREILERLGYSEDEARLLAKRLR | 2.17 kcal/mol |
| PPDDERKKAEKAARSGNEEKAREILERLGYSEDEARMLAKRLR | 2.16 kcal/mol |
| PPDDERKKAEKAARSGNEEKAREILERLGYSEDEARILAKRLR | 2.21 kcal/mol |

| Variant | folding stability dG |
| --- | --- |
| PPDDERKKAEKAARSGNEEKAREILERLGYSEDEARRLAKRLR | 2.34 kcal/mol |
| PPDDERKKAEKAARSGNEEKAREILERLGYSEDEARKLAKRLR | 2.1 kcal/mol |
| PPDDERKKAEKAARSGNEEKAREILERLGYSEDEARWLAKRLR | 2.41 kcal/mol |
| PPDDERKKAEKAARSGNEEKAREILERLGYSEDEARQLAKRLR | 2.1 kcal/mol |
| PPDDERKKAEKAARSGNEEKAREILERLGYSEDEARYLAKRLR | 2.17 kcal/mol |
| PPDDERKKAEKAARSGNEEKAREILERLGYSEDEARGLAKRLR | 1.38 kcal/mol |
| PPDDERKKAEKAARSGNEEKAREILERLGYSEDEARTLAKRLR | 1.95 kcal/mol |
| PPDDERKKAEKAARSGNEEKAREILERLGYSEDEARVLAKRLR | 2.03 kcal/mol |
| PPDDERKKAEKAARSGNEEKAREILERLGYSEDEARNLAKRLR | 1.82 kcal/mol |
| PPDDERKKAEKAARSGNEEKAREILERLGYSEDEARHLAKRLR | 1.85 kcal/mol |
| PPDDERKKAEKAARSGNEEKAREILERLGYSEDEARELAKRVR | 0.97 kcal/mol |
| PPDDERKKAEKAARSGNEEKAREILERLGYSEDEARELAKRDR | 0.37 kcal/mol |
| PPDDERKKAEKAARSGNEEKAREILERLGYSEDEARELAKRFR | 2.26 kcal/mol |
| PPDDERKKAEKAARSGNEEKAREILERLGYSEDEARELAKRSR | 0.87 kcal/mol |
| PPDDERKKAEKAARSGNEEKAREILERLGYSEDEARELAKRKR | 0.832 kcal/mol |
| PPDDERKKAEKAARSGNEEKAREILERLGYSEDEARELAKRER | 0.286 kcal/mol |
| PPDDERKKAEKAARSGNEEKAREILERLGYSEDEARELAKRRR | 0.996 kcal/mol |
| PPDDERKKAEKAARSGNEEKAREILERLGYSEDEARELAKRCR | 1.56 kcal/mol |
| PPDDERKKAEKAARSGNEEKAREILERLGYSEDEARELAKRQR | 0.824 kcal/mol |
| PPDDERKKAEKAARSGNEEKAREILERLGYSEDEARELAKRWR | 3.74 kcal/mol |
| PPDDERKKAEKAARSGNEEKAREILERLGYSEDEARELAKRNR | 0.469 kcal/mol |
| PPDDERKKAEKAARSGNEEKAREILERLGYSEDEARELAKRHR | 0.87 kcal/mol |
| PPDDERKKAEKAARSGNEEKAREILERLGYSEDEARELAKRIR | 1.57 kcal/mol |
| PPDDERKKAEKAARSGNEEKAREILERLGYSEDEARELAKRMR | 2.39 kcal/mol |

| Variant | folding stability dG |
| --- | --- |
| PPDDERKKAEKAARSGNEEKAREILERLGYSEDEARELAKRTR | 0.69 kcal/mol |
| PPDDERKKAEKAARSGNEEKAREILERLGYSEDEARELAKRPR | 0.434 kcal/mol |
| PPDDERKKAEKAARSGNEEKAREILERLGYSEDEARELAKRGR | 0.615 kcal/mol |
| PPDDERKKAEKAARSGNEEKAREILERLGYSEDEARELAKRYR | 2.46 kcal/mol |
| PPDDERKKAEKAARSGNEEKAREILERLGYSEDEARELAKRAR | 1.2 kcal/mol |
| PPDDERKKAEKAARSGNEEKAREILERLGYSEDEARETAKRLR | 1.09 kcal/mol |
| PPDDERKKAEKAARSGNEEKAREILERLGYSEDEARERAKRLR | 0.567 kcal/mol |
| PPDDERKKAEKAARSGNEEKAREILERLGYSEDEAREWAKRLR | 1.49 kcal/mol |
| PPDDERKKAEKAARSGNEEKAREILERLGYSEDEAREYAKRLR | 1.67 kcal/mol |
| PPDDERKKAEKAARSGNEEKAREILERLGYSEDEAREHAKRLR | 0.687 kcal/mol |
| PPDDERKKAEKAARSGNEEKAREILERLGYSEDEAREMAKRLR | 2.09 kcal/mol |
| PPDDERKKAEKAARSGNEEKAREILERLGYSEDEAREVAKRLR | 1.12 kcal/mol |
| PPDDERKKAEKAARSGNEEKAREILERLGYSEDEAREDAKRLR | -0.841 kcal/mol |
| PPDDERKKAEKAARSGNEEKAREILERLGYSEDEARENAKRLR | -0.062 kcal/mol |
| PPDDERKKAEKAARSGNEEKAREILERLGYSEDEAREAAKRLR | 0.925 kcal/mol |
| PPDDERKKAEKAARSGNEEKAREILERLGYSEDEAREFAKRLR | 1.51 kcal/mol |
| PPDDERKKAEKAARSGNEEKAREILERLGYSEDEAREQAKRLR | 0.725 kcal/mol |
| PPDDERKKAEKAARSGNEEKAREILERLGYSEDEAREIAKRLR | 2.04 kcal/mol |
| PPDDERKKAEKAARSGNEEKAREILERLGYSEDEAREEAKRLR | 1.46 kcal/mol |
| PPDDERKKAEKAARSGNEEKAREILERLGYSEDEAREKAKRLR | 0.756 kcal/mol |
| PPDDERKKAEKAARSGNEEKAREILERLGYSEDEAREGAKRLR | -0.173 kcal/mol |
| PPDDERKKAEKAARSGNEEKAREILERLGYSEDEARESAKRLR | 0.129 kcal/mol |

Source: the MegaScale stability set (Tsuboyama et al. 2023)
